In publication PMC11772769, “Selective cargo and membrane recognition by SNX17 regulates its interaction with Retriever” (EMBO Reports, 2024):
pKd: −log10 of the molar value.

Molecular target: Peptide SNX17_(CT-18) (UniProt Q15036)
Test: fluorescence polarisation

## VPS26C-VPS35L_(110-598) complex (from UniProt O14972 1-297; Q7Z3J2 110-598)
  pKd: 5.28
